Assay results from article PMC2748697, “Capzb2 Interacts with β-Tubulin to Regulate Growth Cone Morphology and Neurite Outgrowth” (PLoS Biology, 2009).

Biological target: T1, GST-Capza2 (mouse, UniProt P47754 1-286)
T1 construct: Capza2, α2 subunit of F-actin capping protein, from E17 mouse cDNA; primers run from the start codon (atg gcg gat ctg) to the stop codon; pGEX-4T-2 vector; The methods of the native gel say 'Capza2', the legend 'GST-Capza2'; also called α2-subunit; the other CP subunit; source: E. coli BL21-DE3 or ArcticExpress (DE3)RP, purified (glutathione sepharose)
Test: native gel or EMSA; 1 µM GST-Capzb2 or GST-Capzb2Δ106–140 with 1 µM GST-Capza2, 10 min at 4°C, 4%–20% Tris-glycine native gel, bands excised and identified by Western blot
Conditions: both partners purified

- binding result: binds
B1: GST-Capzb2Δ106–140 (natural protein, mouse, UniProt P47757-2 1-272, looked up)
chain: MSDQQLDCALDLMRRLPPQQIEKNLSDLIDLVPSLCEDLLSSVDQPLKIARDKVVGKDYLLCDYNRDGDSYRSPWSNKYDPPLEDGAMPSARLRKLEVEANNAFDSKKIKGCWDSIHVVEVQEKSSGRTAHYKLTSTVMLWLQTNKSGSGTMNLGGSLTRQMEKDETVSDCSPHIANIGRLVEDMENKIRSTLNEIYFGKTKDIVNGLRSVQTFADKSKQEALKNDLVEALKRKQQC
notes: pGEX-4T-2 vector; also called deletion mutant; source: E. coli BL21-DE3 or ArcticExpress (DE3)RP, purified (glutathione sepharose)
